Laboratory results published in PMC12397275 (Nature Communications, 2025).

Target: T1, 670-689 VP3 peptide (rhesus rotavirus RRV strain)
T1 construct: source: synthetic peptide (Gencript)
Test: BLI
Conditions: both partners purified

B1: PFDN3 protein (His tag removed) (natural protein)
chain: MAAVKDSCGKGEMATGNGRRLHLGIPEAVFVEDVDSFMKQPGNETADTVLKKLDEQYQKYKFMELNLAQKKRRLKGQIPEIKQTLEILKYMQKKKESTNSMETRFLLADNLYCKASVPPTDKVCLWLGANVMLEYDIDEAQALLEKNLSTATKNLDSLEEDLDFLRDQFTTTEVNMARVYNWDVKRRNKDDSTKNKA
notes: also called non-Tagged PFDN3; human PFDN3; source: bought: Abcam (ab139201), His tag cleaved with thrombin
binding result: binds
